Assay results taken from patent US20140248710A1.
Ends that are not written are not given here.

Target: G-131-C affinity purified goat polyclonal antibody against the N-terminus of cardiac troponin I (BiosPacific, Emeryville, Calif.)
Assay: Competition FRET: the unlabeled N-terminal CTnI peptide is titrated against the labeled peptide-oligo conjugates for binding to G-131-C. The antibody concentration of the inset is not given. [inset]

Work on MADGSSDAAREPRPAC (not fully specified) [Unlabeled N-terminal CTnI peptide] yielded an IC50 (read off the curve) of 40 nM.
